The source of these data is doi:10.1101/2023.04.10.536149.

The target of data set [1] is T1, MBP-MafB WT (Homo sapiens, UniProt Q9Y5Q3 1-323). Kind of data set: EMSA. For orientation: A gel shift assay detects complexes by their altered migration in electrophoresis.
In a further data set the target is MBP-MafB ΔHis (Homo sapiens, UniProt Q9Y5Q3 1-323, del131-167). Kind of data set: EMSA.
Data set [2] has as its target T1, MBP-MafB WT. As to the kind of experiment: competition.

B1: IRDye700 MARE EMSA probe (dsDNA)
DNA 1: TGCTGACTCAGCA
DNA 2: TGCTGAGTCAGCA
B1: the binding result with MBP-MafB WT [1] and with MBP-MafB ΔHis was “binds” throughout.

B2: unlabelled MARE competitor (dsDNA)
DNA 1: TGCTGACTCAGCA
DNA 2: TGCTGAGTCAGCA
Regarding B2, the binding result with MBP-MafB WT [2] is recorded as “binds”.
